Experimental data: the DeepSol protein solubility set

Test: soluble on expression in E. coli; label from the status in PepcDB or PDB records

Soluble on expression in E. coli, soluble:
SNNVLPTWSLDSNGEMRSRLSLSEVLDSGDLMKFAVDKTGCQFLEKAVKGSLTSYQKFQLFEQVIGRKDDFLKLSTNIFGNYLVQSVIGISLATNDDGYTKRQEKLKNFISSQMTDMCLDKFACRVIQSSLQNMDLSLACKLVQALPRDARLIAICVDQNANHVIQKVVAVIPLKNWEFIVDFVATPEHLRQICSDKYGCRVVQTIIEKLTADSMNVDLTSAAQNLRERALQRLMTSVTNRCQELATNEYANYIIQHIVSNDDLAVYRECIIEKCLMRNLLSLSQEKFASHVVEKAFLHAPLELLAEMMDEIFDGYIPHPDTGKDALDIMMFHQFGNYVVQCMLTICCDAVSGRRQTKEGGYDHAISFQDWLKKLHSRVTKERHRLSRFSSGKKMIETLANLRSTHPIYELQ
MSLIEQLIQQAQPYWQQYIEHEFVQQLAKGTLPKACFQHYLKQDYLYLFHYSRAFALGVFKAKNFAEMETPRKTLEILCQEIQLHLNYCREWGISEQEIFTTQESAACIAYTRYLLDCGMTGSLAELYAAVTPCALGYAQVARYITQHYPRLPNNPYQTWIDTYASEEFQQAAQETVDFLTALCKPLNPSQLAEIQQIFTTATRMEIAFWQMGLDLAEGGSHHHHHH
MSYYHHHHHHLESTSLYKKALAYTLPQLPYAYDALEPHIDARTMEIHHTKHHQTYVDNANKALEGTEFADLPVEQLIQQLDRVPADKKGALRNNAGGHANHSMFWQIMGQGQGQNGANQPSGELLDAINSAFGSFDAFKQKFEDAAKTRFGSGWAWLVVKDGKLDVVSTANQDNPLMGEAIAGVSGTPILGVDVWEHAYYLNYQNRRPDYLAAFWNVVNWDEVSKRYAAAK
MIITEKRHELILEELSHKDFLTLQELIDRTGCSASTIRRDLSKLQQLGKLQRVHGGAMLKENRMIEANLTEKLATNLDEKKMIAKIAANQINDNECLFIDAGSSTLELIKYIQAKDIIVVTNGLTHVEALLKKGIKTIMLGGQVKENTLATIGSSAMEILRRYCFDKAFIGMNGLDIELGLTTPDEQEALVKQTAMSLANQSFVLIDHSKFNKVYFARVPLLESTTIITSEKALNQESLKEYQQKYHFIGGTLLEHHHHHH
MHHHHHHSSGVDLGTENLYFQSGVVTHEQFKAALRMVVDQGDPRLLLDSYVKIGEGSTGIVCLAREKHSGRQVAVKMMDLRKQQRRELLFNEVVIMRDYQHFNVVEMYKSYLVGEELWVLMEFLQGGALTDIVSQVRLNEEQIATVCEAVLQALAYLHAQGVIHRDIKSDSILLTLDGRVKLSDFGFCAQISKDVPKRKSLVGTPYWMAPEVISRSLYATEVDIWSLGIMVIEMVDGEPPYFSDSPVQAMKRLRDSPPPKLKNSHKVSPVLRDFLERMLVRDPQERATAQELLDHPFLLQTGLPECLVPLIQLYRKQTSTC
MFEEKASSPSGKMGGEEKPIGAGEEKQKEGGKKKNKEGSGDGGRAELNPWPEYIYTRLEMYNILKAEHDSILAEKAEKDSKPIKVTLPDGKQVDAESWKTTPYQIACGISQGLADNTVIAKVNNVVWDLDRPLEEDCTLELLKFEDEEAQAVYWHSSAHIMGEAMERVYGGCLCYGPPIENGFYYDMYLEEGGVSSNDFSSLEALCKKIIKEKQAFERLEVKKETLLAMFKYNKFKCRILNEKVNTPTTTVYRCGPLIDLCRGPHVRHTGKIKALKIHKNSSTYWEGKADMETLQRIYGISFPDPKMLKEWEKFQEEAKNRDHRKIGRDQELYFFHELSPGSCFFLPKGAYIYNALIEFIRSEYRKRGFQEVVTPNIFNSRLWMTSGHWQHYSENMFSFEVEKELFALKPMNCPGHCLMFDHRPRSWRELPLRLADFGVLHRNELSGALTGLTRVRRFQQDDAHIFCAMEQIEDEIKGCLDFLRTVYSVFGFSFKLNLSTRPEKFLGDIEVWDQAEKQLENSLNEFGEKWELNSGDGAFYGPKIDIQIKDAIGRYHQCATIQLDFQLPIRFNLTYVSHDGDDKKRPVIVHRAILGSVERMIAILTENYGGKWPFWLSPRQVMVVPVGPTCDEYAQKVRQQFHDAKFMADIDLDPGCTLNKKIRNAQLAQYNFILVVGEKEKISGTVNIRTRDNKVHGERTISETIERLQQLKEFRSKQAEEEF

Soluble on expression in E. coli, not soluble:
MAHHHHHHMSLNAADAADERSRKEMDRFQVERMAGQGTFGTVQLGKEKSTGMSVAIKKVIQDPRFRNRELQIMQDLAVLHHPNIVQLQSYFYTLGERDRRDIYLNVVMEYVPDTLHRCCRNYYRRQVAPPPILIKVFLFQLIRSIGCLHLPSVNVCHRDIKPHNVLVNEADGTLKLCDFGSAKKLSPSEPNVAYICSRYYRAPELIFGNQHYTTSVDIWSVGCIFAEMMLGEPIFRGDNSAGQLHEIVRVLGCPSREVLRKLNPSHTDVDLYNSKGIPWSSVFCDHSLKDAKEAYDLLSALLQYLPEDRMKPYEALCHPYFDELHDSATKLPNNKDLPEDLFRFLPSEIEVMSEAQKAKLVRK
VRQYGDMPSRVVVLHGGPGGAGEVEPLARELGNRGHAVLEPFQTCQTVGGQVDELSSHIERFCAPPVTVIGWSWGAWLGCLLAAQRGMLVRRLILVGSGPFEESYASAIRTTKNSRLTKDQRKEISQLRPTEGDPAEVARFIALSDIADTYARDTSQQPFVAFDGAIHAAVWAEAVDMRRNGALLEAVCAIRCPVVAIHGDYDPRPSEGVQIPLRAALPSADFVQLERCGHKPWQETFAKADFYRALEA
NDVKRALEVEEINKLLNEVPLKRLPEDLVRCRVWANLMFQLRGMPFVDLAFLHKSDLKGNTLSYRRHKTGGQMIVDIPPTAMELIRQYQNTDCNSPYLFPILSGTKTGEELYIEYQQALRIMNYNLGRLARRCGVITKVSSYTTRHTWATLAKYCNFSEQLICEAFGHSSVKVTETYLKNFKYEEIKKANDAI
GSGYVFGGFIRADIKKWYIQPNIYYMYNSSSIDVNQTSTDVKSKSVNGDVLLGYRFFKFTDLTYLRLFAGPGYSNINTLKYDSCTSDYSTDNILLNAGVGLDFWKLTFDLKYQRGLTDIDKSSNTMHTSLFMLTAGFKIL
MAFQQPNLQQIFSSVDKDRSGQISSDELQTALSNGTWNPFNPETCRLMIGMFDSNGDGAINFQEFQALWRYINDWTNCFRGFDTDGSGNIDKSELTNALTQFGYRLSPQFYNILMHKFDRSHSNRINFDDFIQLCVVLQTLTAAFRLEIRAKIDLEI
MGSSHHHHHHGGTGENLYFQGGSGAGIDYSKWDKLCDSGTSSGTEYEGDRDDKGHDDSSRAPQVTRLEYPSRVTLGPNGVQLEQVPPKASASPFPGTCAPPEETDNGSVAVARCPIKEESFHAEYDTGASNASSHATGNTAGRRDDDQERMGATDDDEDLLYESLARNGGREGSHHWWTQTEDTVTVSFLVPWETKGKSVTEFRLYEARSTTALESELLQAHLEITILVRPACLTSPSSGPSASAAPLRIHQVFRYPVKLSEDLIDGCWQLHFMPRRHLRLLVVQLFKEPVGLGMTLWWDRCFVTDTTSVIADTQTIPDRKRRMEATPGSKEKAGQFRKVWADAHEEFRRRAQERKRKIIE
MSRKMTGIVKTFDCKSGKGLITPSDGRKDVQVHISACRQHETEALIPGIRVEFCRINGLRGPTAANVYLS
MTVVLTLLLLLVLVGCAKPKVEQTVKLGGAVKTIGDLVVLSGNSNLPKGAVVQIVMKEIEGGKQVLEEKVKVGGDGSYSWSAKRPERAKEYELDVMFLPELQPKHVKEKYGEKGELIKKDSSGRVEYQTDGQTYVGIKMYDRILKIGDGMGGQQSMLAETLPPPPPSY
MGHHHHHHSHQQENGSMFSLITWNIDGLDLNNLSERARGVCSYLALYSPDVIFLQEVIPPYYSYLKKRSSNYEIITGHEEGYFTAIMLKKSRVKLKSQEIIPFPSTKMMRNLLCVHVNVSGNELCLMTSHLESTRGHAAERMNQLKMVLKKMQEAPESATVIFAGDTNLRDREVTRCGGLPNNIVDVWEFLGKPKHCQYTWDTQMNSNLGITAACKLRFDRIFFRAAAEEGHIIPRSLDLLGLEKLDCGRFPSDHWGLLCNLDIIL
